Earlier results in PMC12730246.
pKd: −log10 of the molar value.

Target: TKS4 peptide (Homo sapiens) (UniProt A1X283)

TKS4 tandem SH3 tandem SH3 (from UniProt A1X283)
pKd: 4.92
